Results published in publication PMC10147923, “Pain-causing stinging nettle toxins target TMEM233 to modulate NaV1.7 function” (Nature Communications, 2023).

What was measured:
TMEM233 (human) [1] = biological target: TMEM233 (human) (UniProt B4DJY2); experiment: fluorescent ligand binding to cells (plate reader); ExTxA-488 (1–300 nM) with mock- or TMEM233-transfected HEK293 and HEK293-NaV1.7 cells in suspension, 250 mM NaCl, 25 mM HEPES, pH 7, 30 min at 4 °C, washed three times; fluorescence intensity read in 384-well plate; EC50 told for NaV1.7/TMEM233 co-expressing cells
TMEM233 (human) [2] = biological target: TMEM233 (human) (UniProt B4DJY2)

TMEM233 (human), sequence (B4DJY2 whole entry): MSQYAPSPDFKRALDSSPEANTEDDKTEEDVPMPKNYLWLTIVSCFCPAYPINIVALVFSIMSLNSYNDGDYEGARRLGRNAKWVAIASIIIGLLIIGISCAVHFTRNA
Alexa488-tagged excelsatoxin A (peptide), sequence (P0DQP3 38-73 limits assumed): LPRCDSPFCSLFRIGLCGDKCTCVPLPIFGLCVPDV

Work on “Alexa488-tagged excelsatoxin A (peptide)” yielded an EC50 (TMEM233 (human) [1]) of 126 nM and an EC50 of functional potency on NaV1.7 inactivation in NaV1.7/TMEM233 co-expressing cells (electrophysiology) (TMEM233 (human) [2]) of 80.9 nM.
